The record followed here is PMC3281905, “Structure-Based Rational Design of a Toll-like Receptor 4 (TLR4) Decoy Receptor with High Binding Affinity for a Target Protein” (PLoS ONE, 2012).

B1: TLR4 decoy receptor, TV3 (wild-type) (designed binder)
chain: EPCVEVVPNITYQCMELNFYKIPDNLPFSTKNLDLSFNPLRHLGSYSFFSFPELQVLDLSRCEIQTIEDGAYQSLSHLSTLILTGNPIQSLALGAFSGLSSLQKLVAVETNLASLENFPIGHLKTLKELNVAHNLIQSFKLPEYFSNLTNLEHLDLSSNKIQSIYCTDLRVLHQMPLLNLSLDLSLNPMNFIQPGAFKEIRLKELALDTNQLKSVPDGIFDRLTSLQKIWLHTNPWDCSCPRIDYLSRWLNKNSQKEQGSAKCSGSGKPVRSIICP
modifications: limits from the PDB 2Z65 entity (paper residue number = entity position + 26); secreted from insect cells, immobilized by amine coupling
B2: myeloid differentiation protein 2 (MD2) (natural protein, human)
chain: QKQYWVCNSSDASISYTYCDKMQYPISINVNPCIELKRSKGLLHIFYIPRRDLKQLYFNLYITVNTMNLPKRKEVICRGSDDDYSFCRALKGETVNTTISFSFKGIKFSKGKYKCVVEAISGSPEEMLFCLEFVILHQPN
notes: human MD2 (myeloid differentiation protein 2); Secreted from insect cells with the vector pAcGP67; also called human MD2; source: monomeric MD2 from Superdex 75)

Holding throughout (test): SPR; Biacore 3000; decoy receptor or variant covalently immobilised on a CM5 chip (EDC/NHS, 500-800 RU); MD2 4 nM to 2 µM in HBS-EP injected at 60 µL/min for 90 sec, 30 min dissociation; 1:1 Langmuir model
Details in all cases: both partners purified

Test [1] concerns the target B2.
Test [2] addresses TLR4 decoy receptor TV3 M41E (human | hagfish, UniProt O00206 27-228; O00206 27-228, M41E).
Test [3] has as its target TLR4 decoy receptor TV3 V132F (human | hagfish, UniProt O00206 27-228; O00206 27-228, V132F).
Test [4] addresses TLR4 decoy receptor TV3 N156I (human | hagfish, UniProt O00206 27-228; O00206 27-228, N156I).
The target of test [5] is TLR4 decoy receptor TV3 F63L (human | hagfish, UniProt O00206 27-228; O00206 27-228, F63L).
Test [6] deals with TLR4 decoy receptor TV3 V134L (human | hagfish, UniProt O00206 27-228; O00206 27-228, V134L).
Test [7] addresses TLR4 decoy receptor TV3 F63W (human | hagfish, UniProt O00206 27-228; O00206 27-228, F63W).
Test [8] concerns the target TLR4 decoy receptor TV3 D181E (human | hagfish, UniProt O00206 27-228; O00206 27-228, D181E).
The target in test [9] is TLR4 decoy receptor TV3 S184K (human | hagfish, UniProt O00206 27-228; O00206 27-228, S184K).
The target of test [10] is TLR4 decoy receptor TV3 H159Q (human | hagfish, UniProt O00206 27-228; O00206 27-228, H159Q).
Test [11] addresses TLR4 decoy receptor TV3 M41E/F63W (human | hagfish, UniProt O00206 27-228; O00206 27-228, M41E | F63W).
Test [12] addresses TLR4 decoy receptor TV3 M41E/H159Q (human | hagfish, UniProt O00206 27-228; O00206 27-228, M41E | H159Q).
For test [13], the target named is TLR4 decoy receptor TV3 V134L/H159Q (human | hagfish, UniProt O00206 27-228; O00206 27-228, V134L | H159Q).
Test [14] deals with TLR4 decoy receptor TV3 F63W/D181E (human | hagfish, UniProt O00206 27-228; O00206 27-228, F63W | D181E).
In test [15] the target is TLR4 decoy receptor TV3 F63W/V134L (human | hagfish, UniProt O00206 27-228; O00206 27-228, F63W | V134L).

Chain of TLR4 decoy receptor TV3 M41E (O00206 other isoform, or with tags, fused parts or gaps M41E | M41E | M41E): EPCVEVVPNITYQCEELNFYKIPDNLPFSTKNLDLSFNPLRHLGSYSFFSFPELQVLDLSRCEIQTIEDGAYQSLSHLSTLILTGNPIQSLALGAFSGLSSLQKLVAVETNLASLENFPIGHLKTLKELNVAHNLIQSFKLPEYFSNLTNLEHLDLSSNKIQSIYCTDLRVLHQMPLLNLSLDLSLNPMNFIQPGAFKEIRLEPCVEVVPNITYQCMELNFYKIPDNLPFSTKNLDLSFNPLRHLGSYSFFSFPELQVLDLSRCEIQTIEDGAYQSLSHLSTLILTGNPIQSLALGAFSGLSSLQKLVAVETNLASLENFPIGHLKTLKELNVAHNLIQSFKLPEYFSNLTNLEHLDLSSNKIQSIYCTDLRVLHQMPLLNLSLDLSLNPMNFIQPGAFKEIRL
Chain of TLR4 decoy receptor TV3 M41E/F63W (O00206 other isoform, or with tags, fused parts or gaps M41E | F63W | M41E | F63W | M41E F63W): as the sequence (O00206 other isoform, or with tags, fused parts or gaps M41E | M41E | M41E) above, with F37W counted along it
Chain of TLR4 decoy receptor TV3 M41E/H159Q (O00206 other isoform, or with tags, fused parts or gaps M41E | H159Q | M41E | H159Q | M41E H159Q): as the sequence (O00206 other isoform, or with tags, fused parts or gaps M41E | M41E | M41E) above, with H133Q counted along it

Take B1: in test [1], the Kd – broadly, the equilibrium constant for the complex coming apart – worked out at 78 nM; the koff (in general, a measure of how fast the partners let go of each other) came to 0.00222 s⁻¹; the kon (usually a measure of how fast the partners come together) came to 28400 M⁻¹ s⁻¹.

With B2, the Kd turned out to be 3.21 nM in test [2]; 22.2 nM in test [3]; 4.07 nM in [4]; 43.3 nM in test [5]; 4.11 nM in test [6]; 2.84 nM in test [7]. Besides, the Kd in [8] stood at 48.2 nM; in test [9], 183 nM; in [10], 4.3 nM; in test [11] it was 0.026 nM; in test [12], 145 nM; in [13], 0.138 nM. Also, the dissociation constant (Kd) in [14] is 39 nM; in test [15] it was 283 nM. Besides, the koff in test [2] amounted to 5.29e-05 s⁻¹; in test [3], 0.00154 s⁻¹; in test [4], 8.05e-05 s⁻¹; in test [5], 0.00115 s⁻¹; in test [6], 0.00011 s⁻¹; in [7] it was 3.97e-05 s⁻¹. Also, the koff in [8] came out at 0.000924 s⁻¹; in test [9], 0.00141 s⁻¹; in test [10], 1e-05 s⁻¹; in [11], 5.23e-07 s⁻¹; in [12], 0.000461 s⁻¹; in [13], 6.12e-06 s⁻¹. Also, the koff in test [14] was found to be 2.27e-05 s⁻¹; in test [15] it was 0.00103 s⁻¹. In addition, the kon in test [2] turned out to be 16400 M⁻¹ s⁻¹; in test [3] it was 69100 M⁻¹ s⁻¹; in test [4], 19700 M⁻¹ s⁻¹; in test [5], 26500 M⁻¹ s⁻¹; in test [6], 26700 M⁻¹ s⁻¹; in [7], 13900 M⁻¹ s⁻¹. Besides, the kon in test [8] stood at 19100 M⁻¹ s⁻¹; in test [9], 7660 M⁻¹ s⁻¹; in test [10] it was 2140 M⁻¹ s⁻¹; in test [11], 20100 M⁻¹ s⁻¹; in [12] it was 3160 M⁻¹ s⁻¹; in test [13] it was 44100 M⁻¹ s⁻¹. For the same molecule, the kon in test [14] came out at 583 M⁻¹ s⁻¹; in test [15], 3660 M⁻¹ s⁻¹.
